Source: PMC10250230, “Negatively charged, intrinsically disordered regions can accelerate target search by DNA-binding proteins”

Experiments:
[1] = molecular target: Antp HD (control without DERT; Antp HD-MID) (UniProt P02833); test: fluorescence anisotropy; conditions: pH 5.8, 200 mM KCl, Antp Kd: 20 mM potassium succinate pH 5.8, 0.4 mM NaF, HMGB1: 10 mM K phosphate pH 7.5, 1 mM DTT, 1 mM MgCl2, 100 mM KCl, 25 C, Antp stopped-flow: …
[2] = molecular target: Antp HD-DERT7 (UniProt P02833); test: fluorescence anisotropy; conditions: pH 5.8, 200 mM KCl, Antp Kd: 20 mM potassium succinate pH 5.8, 0.4 mM NaF, HMGB1: 10 mM K phosphate pH 7.5, 1 mM DTT, 1 mM MgCl2, 100 mM KCl, 25 C, Antp stopped-flow: …
[3] = molecular target: Antp HD-DERT16 (UniProt P02833); test: fluorescence anisotropy; conditions: pH 5.8, 200 mM KCl, Antp Kd: 20 mM potassium succinate pH 5.8, 0.4 mM NaF, HMGB1: 10 mM K phosphate pH 7.5, 1 mM DTT, 1 mM MgCl2, 100 mM KCl, 25 C, Antp stopped-flow: …
[4] = molecular target: Antp HD-DERT11 (UniProt P02833); test: fluorescence anisotropy; conditions: pH 5.8, 200 mM KCl, Antp Kd: 20 mM potassium succinate pH 5.8, 0.4 mM NaF, HMGB1: 10 mM K phosphate pH 7.5, 1 mM DTT, 1 mM MgCl2, 100 mM KCl, 25 C, Antp stopped-flow: …
[5] = molecular target: HMGB1 full-length (human, UniProt P09429 1-215); test: competition (fluorescence anisotropy); 10 mM K phosphate pH 7.5, 1 mM DTT, 1 mM MgCl2, 100 mM KCl, 25 C; apparent Kd; Antp Kd: 20 mM potassium succinate pH 5.8, 0.4 mM NaF, 200 mM KCl; HMGB1: 10 mM K phosphate pH 7.5, 1 mM DTT, 1 mM MgCl2, 100 mM KCl, 25 C; Antp stopped-flow: 1; conditions: protein: recombinant
HMGB1 full-length, sequence (P09429 whole entry): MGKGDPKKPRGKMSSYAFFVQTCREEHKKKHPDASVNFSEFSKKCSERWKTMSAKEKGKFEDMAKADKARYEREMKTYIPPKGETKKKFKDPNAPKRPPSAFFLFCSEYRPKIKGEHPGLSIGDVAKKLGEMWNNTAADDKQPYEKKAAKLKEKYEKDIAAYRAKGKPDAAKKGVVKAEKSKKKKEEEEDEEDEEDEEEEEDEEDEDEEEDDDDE

Antp HD (control without DERT; Antp HD-MID), sequence (P02833 whole entry): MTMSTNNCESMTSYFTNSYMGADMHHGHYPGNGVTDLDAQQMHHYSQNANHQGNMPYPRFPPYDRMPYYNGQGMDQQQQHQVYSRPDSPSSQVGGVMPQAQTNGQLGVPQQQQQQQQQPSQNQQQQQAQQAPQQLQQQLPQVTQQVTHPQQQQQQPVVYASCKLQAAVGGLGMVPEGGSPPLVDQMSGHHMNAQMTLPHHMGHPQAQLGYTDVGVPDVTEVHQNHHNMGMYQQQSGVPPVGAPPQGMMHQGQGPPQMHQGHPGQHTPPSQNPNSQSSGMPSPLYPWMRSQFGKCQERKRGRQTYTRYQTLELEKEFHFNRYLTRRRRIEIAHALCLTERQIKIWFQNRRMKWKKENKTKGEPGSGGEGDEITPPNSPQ
Antp HD-DERT11, sequence (P02833 whole entry): as above
Antp HD-DERT7, sequence (P02833 whole entry): as above
Antp HD-DERT16, sequence (P02833 whole entry): as above

Molecule: TAMRA-labeled 15-bp Antp recognition DNA
- Kd [1]: 2.6 nM
- Kd [2]: 19 nM
- Kd [3]: 61 nM
- Kd [4]: 69 nM

B1: unlabeled cisplatin-modified DNA (dsDNA)
DNA 1: CTCTGGACCTTCCTTTCTTC
DNA 2: GAAGAAAGGAAGGTCCAGAG
modifications: cisplatin adduct
- Kd [5]: 17 ± 3 nM
